Measurements taken from US8389575B2, “Control of enzymatic peracid generation” (E.I. du Pont de Nemours and Company, priority 2008, dated 2013).

Key:
[1] = Peracetic acid production and reaction pH over time, Thermotoga maritima MSB8 perhydrolase, selection of buffer, reactant and perhydrolase concentrations; format: biochemical; details: triacetin 100 mM
Procedure: Reactions (10 mL total volume) containing triacetin (100 mM), hydrogen peroxide (100 mM or 250 mM) and heat-treated, centrifuged cell extract supernatant (35 to 100 μg total heat-treated extract protein/mL, prepared as described in Example 13) prepared from an E. coli transformant expressing perhydrolase from Thermotoga maritima MSB8 (KLP18/pSW207) in sodium citrate (50 mM, pH 6.5) buffer, or in sodium bicarbonate buffer (1 mM to 5 mM, initial pH as indicated in Table 12), or in water without added buffer were run at 25° C. A control reaction for each reaction condition was run to determine the concentration of peracetic acid produced by chemical perhydrolysis of triacetin by hydrogen peroxide in the absence of added extract protein. Determination of the concentration of peracetic acid in the reaction mixtures was performed according to the method described by Karst et al., supra. The peracetic acid concentration produced at predetermined reaction times is listed in Table 11, and the corresponding reaction pH at each reaction time is listed in Table 12.

[2] = Peracetic acid production by Thermotoga maritima MSB8 perhydrolase, control by bicarbonate buffer concentration; format: biochemical; details: 100 mM triacetin
Procedure: A cell extract of a transformant expressing perhydrolase from Thermotoga maritima MSB8 (KLP18/pSW207) was prepared by passing a suspension of cell paste (20 wt % wet cell weight) in 0.05 M potassium phosphate buffer (pH 7.0) containing dithiothreitol (1 mM) twice through a French press having a working pressure of 16,000 psi (˜110 MPa). The crude extract was then centrifuged at 20,000×g to remove cellular debris, producing a clarified cell extract that was assayed for total soluble protein (Bicinchoninic Acid Kit for Protein Determination, Sigma Aldrich catalog #BCA1-KT). The clarified extract was heated for 20 min at 75° C., followed immediately by cooling in an ice/water bath. The resulting mixture was centrifuged to remove precipitated protein, and the supernatant collected and assayed for total soluble protein as before. […] The supernatant was frozen in dry ice and stored at −80° C.
Reactions (2 mL total volume) containing triacetin, hydrogen peroxide and heat-treated, centrifuged cell extract supernatant (prepared as described above) were run at 25° C. using sodium bicarbonate buffer concentrations listed in Tables 9 and 10. A control reaction for each reaction condition was run to determine the concentration of peracetic acid produced by chemical perhydrolysis of triacetin by hydrogen peroxide in the absence of added extract protein. Determination of the concentration of peracetic acid in the reaction mixtures was performed according to the method described by Karst et al., supra. The peracetic acid concentrations produced in 1 min, 5 min and 30 min using either 250 mM or 100 mM hydrogen peroxide are listed in Table 9 and Table 10.

[3] = bicarbonate, 1 mM, H2O2 100 mM, total protein 75 μg/mL
[4] = bicarbonate, 1 mM, H2O2 100 mM, total protein 100 μg/mL
[5] = bicarbonate, 1 mM, H2O2 250 mM, total protein 35 μg/mL
[6] = bicarbonate, 1 mM, H2O2 250 mM, total protein 50 μg/mL
[7] = bicarbonate, 2.5 mM, H2O2 100 mM, total protein 50 μg/mL
[8] = bicarbonate, 5 mM, H2O2 100 mM, total protein 50 μg/mL
[9] = citrate, 50 mM, H2O2 100 mM, total protein 50 μg/mL
[10] = water (no buffer), H2O2 250 mM, total protein 75 μg/mL
[11] = water (no buffer), H2O2 250 mM, total protein 100 μg/mL

B1: Thermotoga maritima MSB8 perhydrolase: acetyl xylan esterase with perhydrolase activity from Thermotoga maritima MSB8 (SEQ ID NO: 16), cell extract of E. coli KLP18/pSW207 (protein, listed as Thermotoga maritima)
chain: MAFFDLPLEELKKYRPERYEEKDFDEFWEETLAESEKFPLDPVFERMESHLKTVEAYDVTFSGYRGQRIKGWLLVPKLEEEKLPCVVQYIGYNGGRGFPHDWLFWPSMGYICFVMDTRGQGSGWLKGDTPDYPEGPVDPQYPGFMTRGILDPRTYYYRRVFTDAVRAVEAAASFPQVDQERIVIAGGSQGGGIALAVSALSKKAKALLCDVPFLCHFRRAVQLVDTHPYAEITNFLKTHRDKEEIVFRTLSYFDGVNFAARAKIPALFSVGLMDNICPPSTVFAAYNYYAGPKEIRIYPYNNHEGGGSFQAVEQVKFLKKLFEKG
- PAA (ppm), 1 min [1, 3]: 434 ppm
- PAA (ppm), 5 min [1, 3]: 494 ppm
- PAA (ppm), 30 min [1, 3]: 608 ppm
- PAA (ppm), 2 h [1, 3]: 673 ppm
- PAA (ppm), 18 h [1, 3]: 576 ppm
- PAA (ppm), 1 min [1, 4]: 449 ppm
- PAA (ppm), 5 min [1, 4]: 667 ppm
- PAA (ppm), 30 min [1, 4]: 643 ppm
- PAA (ppm), 2 h [1, 4]: 703 ppm
- PAA (ppm), 18 h [1, 4]: 613 ppm
- PAA (ppm), 1 min [1, 5]: 467 ppm
- PAA (ppm), 5 min [1, 5]: 1047 ppm
- PAA (ppm), 30 min [1, 5]: 1041 ppm
- PAA (ppm), 2 h [1, 5]: 1014 ppm
- PAA (ppm), 18 h [1, 5]: 917 ppm
- PAA (ppm), 1 min [1, 6]: 624 ppm
- PAA (ppm), 5 min [1, 6]: 1060 ppm
- PAA (ppm), 30 min [1, 6]: 1090 ppm
- PAA (ppm), 2 h [1, 6]: 1063 ppm
- PAA (ppm), 18 h [1, 6]: 1021 ppm
- PAA (ppm), 1 min [1, 7]: 256 ppm
- PAA (ppm), 5 min [1, 7]: 722 ppm
- PAA (ppm), 30 min [1, 7]: 976 ppm
- PAA (ppm), 2 h [1, 7]: 887 ppm
- PAA (ppm), 18 h [1, 7]: 855 ppm
- PAA (ppm), 1 min [1, 8]: 410 ppm
- PAA (ppm), 5 min [1, 8]: 1088 ppm
- PAA (ppm), 30 min [1, 8]: 1496 ppm
- PAA (ppm), 2 h [1, 8]: 1423 ppm
- PAA (ppm), 18 h [1, 8]: 1419 ppm
- PAA (ppm), 1 min [1, 9]: 409 ppm
- PAA (ppm), 5 min [1, 9]: 892 ppm
- PAA (ppm), 30 min [1, 9]: 2001 ppm
- PAA (ppm), 2 h [1, 9]: 2254 ppm
- PAA (ppm), 18 h [1, 9]: 1937 ppm
- PAA (ppm), 1 min [1, 10]: 512 ppm
- PAA (ppm), 5 min [1, 10]: 535 ppm
- PAA (ppm), 30 min [1, 10]: 533 ppm
- PAA (ppm), 2 h [1, 10]: 472 ppm
- PAA (ppm), 18 h [1, 10]: 448 ppm
- PAA (ppm), 1 min [1, 11]: 576 ppm
- PAA (ppm), 5 min [1, 11]: 668 ppm
- PAA (ppm), 30 min [1, 11]: 654 ppm
- PAA (ppm), 2 h [1, 11]: 618 ppm
- PAA (ppm), 18 h [1, 11]: 543 ppm
- PAA (ppm), 1 min ([2]; NaHCO3 0 mM, initial pH 5.0, 1 min, 100 mM H2O2, 50 μg/mL heated extract total protein): 125 ppm
- PAA (ppm), 1 min ([2]; NaHCO3 0 mM, initial pH 5.0, 1 min, 250 mM H2O2, 50 μg/mL heated extract total protein): 233 ppm
- PAA (ppm), 5 min ([2]; NaHCO3 0 mM, initial pH 5.0, 5 min, 100 mM H2O2, 50 μg/mL heated extract total protein): 121 ppm
- PAA (ppm), 5 min ([2]; NaHCO3 0 mM, initial pH 5.0, 5 min, 250 mM H2O2, 50 μg/mL heated extract total protein): 290 ppm
- PAA (ppm), 30 min ([2]; NaHCO3 0 mM, initial pH 5.0, 30 min, 100 mM H2O2, 50 μg/mL heated extract total protein): 105 ppm
- PAA (ppm), 30 min ([2]; NaHCO3 0 mM, initial pH 5.0, 30 min, 250 mM H2O2, 50 μg/mL heated extract total protein): 289 ppm
- PAA (ppm), 1 min ([2]; NaHCO3 1.0 mM, initial pH 6.0, 1 min, 100 mM H2O2, 50 μg/mL heated extract total protein): 238 ppm
- PAA (ppm), 1 min ([2]; NaHCO3 1.0 mM, initial pH 6.0, 1 min, 250 mM H2O2, 50 μg/mL heated extract total protein): 690 ppm
- PAA (ppm), 5 min ([2]; NaHCO3 1.0 mM, initial pH 6.0, 5 min, 100 mM H2O2, 50 μg/mL heated extract total protein): 388 ppm
- PAA (ppm), 5 min ([2]; NaHCO3 1.0 mM, initial pH 6.0, 5 min, 250 mM H2O2, 50 μg/mL heated extract total protein): 980 ppm
- PAA (ppm), 30 min ([2]; NaHCO3 1.0 mM, initial pH 6.0, 30 min, 100 mM H2O2, 50 μg/mL heated extract total protein): 361 ppm
- PAA (ppm), 30 min ([2]; NaHCO3 1.0 mM, initial pH 6.0, 30 min, 250 mM H2O2, 50 μg/mL heated extract total protein): 981 ppm
- PAA (ppm), 1 min ([2]; NaHCO3 2.5 mM, initial pH 6.5, 1 min, 100 mM H2O2, 50 μg/mL heated extract total protein): 319 ppm
- PAA (ppm), 1 min ([2]; NaHCO3 2.5 mM, initial pH 6.5, 1 min, 250 mM H2O2, 50 μg/mL heated extract total protein): 817 ppm
- PAA (ppm), 5 min ([2]; NaHCO3 2.5 mM, initial pH 6.5, 5 min, 100 mM H2O2, 50 μg/mL heated extract total protein): 755 ppm
- PAA (ppm), 5 min ([2]; NaHCO3 2.5 mM, initial pH 6.5, 5 min, 250 mM H2O2, 50 μg/mL heated extract total protein): 1758 ppm
- PAA (ppm), 30 min ([2]; NaHCO3 2.5 mM, initial pH 6.5, 30 min, 100 mM H2O2, 50 μg/mL heated extract total protein): 710 ppm
- PAA (ppm), 30 min ([2]; NaHCO3 2.5 mM, initial pH 6.5, 30 min, 250 mM H2O2, 50 μg/mL heated extract total protein): 1748 ppm
- PAA (ppm), 1 min ([2]; NaHCO3 5.0 mM, initial pH 6.5, 1 min, 100 mM H2O2, 50 μg/mL heated extract total protein): 330 ppm
- PAA (ppm), 1 min ([2]; NaHCO3 5.0 mM, initial pH 6.5, 1 min, 250 mM H2O2, 50 μg/mL heated extract total protein): 735 ppm
- PAA (ppm), 5 min ([2]; NaHCO3 5.0 mM, initial pH 6.5, 5 min, 100 mM H2O2, 50 μg/mL heated extract total protein): 972 ppm
- PAA (ppm), 5 min ([2]; NaHCO3 5.0 mM, initial pH 6.5, 5 min, 250 mM H2O2, 50 μg/mL heated extract total protein): 1825 ppm
- PAA (ppm), 30 min ([2]; NaHCO3 5.0 mM, initial pH 6.5, 30 min, 100 mM H2O2, 50 μg/mL heated extract total protein): 1323 ppm
- PAA (ppm), 30 min ([2]; NaHCO3 5.0 mM, initial pH 6.5, 30 min, 250 mM H2O2, 50 μg/mL heated extract total protein): 2222 ppm
- PAA (ppm), 1 min ([2]; NaHCO3 10 mM, initial pH 7.0, 1 min, 250 mM H2O2, 50 μg/mL heated extract total protein): 804 ppm
- PAA (ppm), 5 min ([2]; NaHCO3 10 mM, initial pH 7.0, 5 min, 250 mM H2O2, 50 μg/mL heated extract total protein): 1951 ppm
- PAA (ppm), 30 min ([2]; NaHCO3 10 mM, initial pH 7.0, 30 min, 250 mM H2O2, 50 μg/mL heated extract total protein): 2698 ppm
- PAA (ppm), 1 min ([2]; NaHCO3 10 mM, initial pH 8.1, 1 min, 100 mM H2O2, 50 μg/mL heated extract total protein): 407 ppm
- PAA (ppm), 5 min ([2]; NaHCO3 10 mM, initial pH 8.1, 5 min, 100 mM H2O2, 50 μg/mL heated extract total protein): 1075 ppm
- PAA (ppm), 30 min ([2]; NaHCO3 10 mM, initial pH 8.1, 30 min, 100 mM H2O2, 50 μg/mL heated extract total protein): 1763 ppm
- PAA (ppm), 1 min ([2]; NaHCO3 25 mM, initial pH 8.1, 1 min, 100 mM H2O2, 50 μg/mL heated extract total protein): 465 ppm
- PAA (ppm), 1 min ([2]; NaHCO3 25 mM, initial pH 8.1, 1 min, 250 mM H2O2, 50 μg/mL heated extract total protein): 848 ppm
- PAA (ppm), 5 min ([2]; NaHCO3 25 mM, initial pH 8.1, 5 min, 100 mM H2O2, 50 μg/mL heated extract total protein): 1369 ppm
- PAA (ppm), 5 min ([2]; NaHCO3 25 mM, initial pH 8.1, 5 min, 250 mM H2O2, 50 μg/mL heated extract total protein): 2342 ppm
- PAA (ppm), 30 min ([2]; NaHCO3 25 mM, initial pH 8.1, 30 min, 100 mM H2O2, 50 μg/mL heated extract total protein): 2217 ppm
- PAA (ppm), 30 min ([2]; NaHCO3 25 mM, initial pH 8.1, 30 min, 250 mM H2O2, 50 μg/mL heated extract total protein): 3251 ppm
